Test system: MS2 coat protein
Experiment: apparent KD of MS2 coat protein; designed switch direction (-1 OFF switch, 1 ON switch): -1; higher = weaker reporter binding
In short: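 Stalled E. coli RNA polymerase transcribed designed RNA switches on Illumina chips, which were then titrated with SNAP-549-labelled MS2 coat protein, doubling from 0.7 or 1.5 nM to 3 µM. Steps lasted from 0.8–1.5 h at the lowest concentration to 10–20 min at the highest. The apparent KD is each design's median over clusters of curve-fitted normalised fluorescence.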

[1] = Eterna round: R95, input ligand: FMN 200 uM
[2] = Eterna round: R95, input ligand: microRNA oligo, concentration not stated
[3] = Eterna round: R95, input ligand: none
[4] = input ligand: microRNA oligo, concentration not stated

Sequence | apparent KD of MS2 coat protein [1] | apparent KD of MS2 coat protein [2] | apparent KD of MS2 coat protein [3] | apparent KD of MS2 coat protein (input ligand: FMN 200 uM) | apparent KD of MS2 coat protein [4] | apparent KD of MS2 coat protein (input ligand: none)
GGAAAGCAAGGAUAUACAAGGAAACGAUGGAAAGUAGAGAGACAUGAGGAUCACCCAUGUAGAAGGUGCGAGAG [JR_Exclu2_Sub037] (puzzle: Exclusion 2) | 36.9 nM | 24.9 nM | 25.3 nM | – | – | –
CUGCUGGAGCUUUGCUUUGGUCGUACAUGAGGAUCACCCAUGUAGGAUAUGGUAGGCUUUGCUUGCUAGAAGGAUAGAGUGGUC [salish99_ExNG3_r04_609] (Eterna round: R96, puzzle: Exclusion NG 3) | – | – | – | 197 nM | 77.5 nM | 88.8 nM
CCUUAACAUGAGGAUCACCCAUGUGAGGAUAUGAUGCAGCAGUGGUCUACGCUGUGCAUCAGAAGGUACAUGGU (Eterna round: R96, puzzle: Exclusion 1) | – | – | – | 291 nM | 35.9 nM | 44.5 nM
GGUACUAACACGAAAGUGUUAGUACUAUAAGUUUGUGUUACAUGAGGAUCACCCAUGUCCUCAUAAGCUCGUCUUGU [JL-sv3-2.20 mat747 mod] (puzzle: Sensor v3, turn-off variant 2) | 623 nM | 59.6 nM | 685 nM | – | – | –
AACUAACAUGUAGGAUAUGCGUGGCGAAGCUAUGCAGAAGGACAUGAGGAUCACCCAUGUUUUAGCGUCUGCGUACAGAUGCAU [JL ENG1 1.41] (Eterna round: R96, puzzle: Exclusion NG 1) | – | – | – | 146 nM | 16.6 nM | 20.8 nM
AACAGAUGAGGAUAUACACGAGGAGUGAUACCGUAUGCCAGACAUGAGGAUCACCCAUGUAGAAGGCAUAAUAG [Celeated] (Eterna round: R97, puzzle: Exclusion 2) | – | – | – | 18.9 nM | – | 12.4 nM
UUUAAUUUUUUUUUUUUACAAGCUUUUUGCUCGUCUUAUACAUGAGGAUCACCCAUGUAAGUGGGAAAUGAAUUAUC [JMF 99] (puzzle: Sensor v3, turn-off variant 2) | 53.3 nM | 419 nM | 77.9 nM | – | – | –
CAAUAACAAGCGAGAUCCUACAUGAGGAUCACCCAUGUGCUCGUCUUAAAAGGUACUGUGACGAUAGUCACGGUACC [Mat - Sensor, turn-off var - Eli Mod - D98] (Eterna round: R97, puzzle: Sensor, turn-off variant 1) | – | – | – | 15.3 nM | – | 17.9 nM
AAGAAACAUGAGGAUCACCCAUGUGAGGAUAUGAGGAAGAAAAGAAAAGAAAGAAGACUCAGAAGGCACAAAGG [salish99-ex1_r3_073] (puzzle: Exclusion 1) | 189 nM | 49 nM | 76.8 nM | – | – | –
ACAUGUUGCGCAGGAUAUGGGACACAUGAGGAUCACCCAUGUGGUUACAUGUCUUACCAAGCGUCCCAGAAGGGCGUGAACAUG [Ex NG2 #31] (Eterna round: R96, puzzle: Exclusion NG 2) | – | – | – | 28.6 nM | 18.4 nM | 22.1 nM
AAAAUAAGUGUGAGGAUAUGCUGGUCCUUGGAUCAGCAGAAGGCACAUGAGGAUCACCCAUGUAAUAUAUUUAU [Mat - Exclusion 4 - JL Mod - D62] (puzzle: Brourd's mod of Exclusion 4) | – | 77.3 nM | – | – | – | –
GCCGGAUAAGUGAGGAUAUACCUAUGGAUACAUAGGUAGAAGGCACAUGAGGAUCACCCAUGUUCCUCUCCGGC [JL-BMX4-4.17 Eli mod] (Eterna round: R97, puzzle: Brourd's mod of Exclusion 4) | – | – | – | 406 nM | – | 30.3 nM
GUGACCAUAGGAUAUACAUGAGGAUCACCCAUGUGCAGGUCGGAAGACCCGCGGUCAUGUAGAAGGAUGUAAUU [EX3 A.23] (Eterna round: R97, puzzle: Exclusion 3) | – | – | – | 18.2 nM | – | 16.2 nM
UUGGAGAGAGGAUAUCCCUAGUUUAACAUGAGGAUCACCCAUGUGCGCGUCAAGUCGAAAGGAGAAGGUUCGGCGA [Eternabot (L1) Solution 5] (Eterna round: R97, puzzle: Exclusion 5) | – | – | – | 32.7 nM | – | 26.8 nM
GUAGAGUAAGGAUAUUGUGAAUAGGAUAGAAUGGUUAGAAACAAGAAGGUACAUGAGGAUCACCCAUGUAAUGU [Excluse me!!!! 20 - Jieux - Exclusion 4] (puzzle: Exclusion 4) | – | 21.3 nM | – | – | – | –
CAUACUGAAGUUAGGAUAUUCGGACGAAUACGGAUGGAGAAGGGACAUGAGGAUCACCCAUGUAGAUAGUAAAG [EX-4 Malc #13] (puzzle: Brourd's mod of Exclusion 4) | 20.1 nM | 20.7 nM | 19.8 nM | – | – | –
GUAGAGUCAGGAUAUACGGGAUCGAAAGAUCGGCGAUCCAUACAUGAGGAUCACCCAUGUAGAAGGGACUCUAC [Omei mod 10 to Eli's favorate candidate (ch.parushev)] (Eterna round: R97, puzzle: Exclusion 2) | – | – | – | 189 nM | – | 22.7 nM
AGAACUCUAGUAGGAUAUGUCGGAUAUGUUGUUGAGGUUCACCCAACGACGUCAAUGACAGAGGGACAGAAGGACUCCUGUUCC [pwkr exNG2 2xFMN 1xF5.9] (Eterna round: R96, puzzle: Exclusion NG 2) | – | – | – | 873 nM | 506 nM | 1110 nM
CAUGUCCAACGAGGAUAUGGGACAGGAGGUGUACCAGAAGGCGUACGGACAUGAGGAUCACCCAUGUCGCGCGGUGCGAUGUGG [15th something] (Eterna round: R96, puzzle: Exclusion NG 1) | – | – | – | 98.9 nM | 39.8 nM | 62.8 nM
GAUCAACAUGAGGAUCACCCAUGUGAGGAUAUGAUACUAUGUACUUCGGUACAUAGUAUCAGAAGGCAUAUUGA [Ex1-3: 41] (puzzle: Exclusion 1) | – | 50.7 nM | – | – | – | –
UGAGUGCUGCGAGGAUAUACAUGAGGAUCACCCAUGUGGAUCUGUGAGGCUUUGCCUCACAGGAUGUAGAAGGCGCAGUACUCU [JL ENG2 1.19] (Eterna round: R96, puzzle: Exclusion NG 2) | – | – | – | 156 nM | 17.8 nM | 27.4 nM
GACAUACAUGAGGAUCACCCAUGUAAGGAUAUACGCAGUAGACUCCGAGGGACCUGAAGUAGAAGGUACAGGGU [Eternabot (L2) Solution 72] (Eterna round: R97, puzzle: Exclusion 1) | – | – | – | 103 nM | – | 34.5 nM
GCCUUAUGAGUCAGGAUAUACAAUAAAAUAAUUAAGUAGAAGGGACAUGAGGAUCACCCAUGUACAUUACAUUG [alecazam28] (Eterna round: R97, puzzle: Brourd's mod of Exclusion 4) | – | – | – | 82.4 nM | – | 21.6 nM
ACCCAACAUGAGGAUCACCCAUGUCAGGAUAUCCAUCACUAUCACGAAAGGAUAGGAUGGAGAAGGGACAGAGG [ChP 04-04-2015 #3] (puzzle: Exclusion 1) | 325 nM | 99.8 nM | 158 nM | – | – | –
UUCACAUGGACAUGAGAUCACAUGAGGAUCACCCAUGUGAAUAACAAGCUUUUUGUUCGUCUUAUGUCCAAUAAUAU [Stov1/14-D2] (Eterna round: R97, puzzle: Sensor, turn-off variant 1) | – | – | – | 13.7 nM | – | 10.5 nM
